# Data from patent US20220119464A1.
# pKd: −log10 of the molar value.
# Molecular target: biotinylated D-form of SARS-CoV-2 HR1 (SARS-CoV-2)
substance,measurement,value
D-form of EK1 (peptide),pKd,7.49
